Columns and labels:
NT3 = biological target: T1, NT3 (Homo sapiens, UniProt P20783); experiment: Mouse E17/18 trigeminal neuron survival assay, NT3; type: cell-based; settings: saturating NT3; antibody up to 200 nM; 48 hours
T1 sequence (P20783 139-257): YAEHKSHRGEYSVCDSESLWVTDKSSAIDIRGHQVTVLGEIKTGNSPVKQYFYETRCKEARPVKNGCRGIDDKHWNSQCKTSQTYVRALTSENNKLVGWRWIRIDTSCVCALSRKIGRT
Method: (§1) The ability of antibody E3 to specifically block NGF activity was evaluated by measurement of the capacity of the antibody to inhibit survival of mouse E17/18 trigeminal neurons in vitro in the presence of saturating concentrations of NGF, the NGF-related neurotrophin NT3, or the NGF-unrelated neurotrophic factor, macrophage stimulating protein (MSP). The survival of mouse E17/18 trigeminal neurons is a sensitive assay to evaluate the NGF-blocking activity of anti-NGF antagonist antibodies because NGF is required to support survival of these neurons at higher concentrations than the level of NGF required to support survival of E13.5 TG neurons).
(§2) The survival assay was conducted as follows: time mated pregnant Swiss Webster female mice were euthanised by CO2 inhalation. The uterine horns were removed and the embryos (at embryonic day 17 or 18) were extracted and decapitated. The trigeminal and nodose ganglia were dissected and cleaned. The ganglia were then trypsinised, mechanically dissociated and plated at a density of 100-300 cells per well in defined, serum-free medium in 4-well plates (Greiner) coated with poly-L-ornithine and laminin.
(§3) E17/18 trigeminal neurons were grown either without added neurotrophic factors (negative control) or in the presence of saturating concentrations of human NGF (400 pM and 15 pM) (positive control); NT3 (400 pM); or MSP (600 pM). […]

human NGF [1] = biological target: T2, human NGF (Homo sapiens, UniProt P01138); experiment: BIAcore affinity determination assay (kon, koff, KD of purified Fabs); type: binding; settings: Fab on immobilized human NGF
T2 sequence (P01138 122-241): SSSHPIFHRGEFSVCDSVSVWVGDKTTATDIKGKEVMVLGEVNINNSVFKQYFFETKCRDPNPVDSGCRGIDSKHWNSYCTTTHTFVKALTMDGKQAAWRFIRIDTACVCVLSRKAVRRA
Method: Affinities of anti-NGF Fabs and monoclonal antibodies were determined using the BIAcore300™ surface plasmon resonance (SPR) system (BIAcore, INC, Piscaway N.J.). CM5 chips were activated with N-ethyl-N′-(3-dimethylaminopropyl)-carbodimide hydrochloride (EDC) and N-hydroxysuccinimide (NHS) according to the supplier's instructions. Human NGF was diluted into 10 mM sodium acetate pH 4.0 and injected over the activated chip at a concentration of 0.005 mg/mL. Using variable flow time across the individual chip channels, two ranges of antigen density were achieved: 100-200 response units (RU) for detailed kinetic studies and 500-600 RU for screening assays. The chip was blocked with ethanolamine. […] HBS-EP buffer (0.01M HEPES, pH 7.4, 0.15 NaCl, 3 mM EDTA, 0.005% Surfactant […]) was used as running buffer for all the BIAcore assays.
Serial dilutions (0.1-10× estimated KD) of purified Fab samples were injected for 1 min at 100 μL/min and dissociation times of up to 2 h were allowed. The concentrations of the Fab proteins were determined by ELISA and/or SDS-PAGE electrophoresis using as a standard a Fab of known concentration (as determined by amino acid analysis). Kinetic association rates (kon) and dissociation rates (koff) were obtained simultaneously by fitting the data to a 1:1 Langmuir binding model (Karlsson, R. Roos, H. Fagerstam, L. Petersson, B. (1994). Methods Enzymology 6. 99-110) using the BIAevaluation program. Equilibrium dissociation constant (KD) values were calculated as koff/kon.
The binding affinities to human NGF of Fabs E3 and 3C were measured using BIAcore analysis according to the manufacturer's instructions and as described above, except that 100 RU NGF was used on chip to prevent a rebinding effect. Briefly, several concentrations of antibodies (Fabs) were injected for 2 minutes onto a CM5 chip with 100 RU of immobilized human NGF on it, and permitted to dissociate for 1800 seconds. Mouse antibody 911 (Fab) was analyzed as a control. Data was analyzed using BIAevaluation software following the manufacturer's instructions. E3 bound human NGF with a KD of approximately 0.07 nM (and with a kon of about 6.0e5 M-1s-1, and a koff of about 4.2e-5s-1).

LIF = LIF (Homo sapiens, UniProt P15018); experiment: Mouse E17 nodose neuron survival assay, LIF; type: cell-based; settings: LIF 2.5 nM; antibody up to 200 nM; 48 hours
LIF, sequence (P15018 23-202, species assumed): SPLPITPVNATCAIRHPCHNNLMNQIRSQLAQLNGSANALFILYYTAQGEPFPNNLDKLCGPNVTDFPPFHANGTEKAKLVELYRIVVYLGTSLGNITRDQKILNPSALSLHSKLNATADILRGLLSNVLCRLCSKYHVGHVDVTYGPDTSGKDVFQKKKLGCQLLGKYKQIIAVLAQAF
Method: (§4) The ability of antibody E3 to specifically block NGF activity was also evaluated by measurement of the capacity of the antibody to inhibit survival of mouse nodose E17 neurons in the presence of saturating concentrations of BDNF or NT4/5. Survival of nodose neurons is supported by BDNF or NT4/5; therefore, survival of these neurons is a sensitive assay to evaluate the BDNF or NT4/5-blocking ability of the anti-NGF antagonist antibody.
as §2
(§5) E17 nodose neurons were grown either in the absence of added neurotrophic factors (negative control), or with saturating concentrations of BDNF (400 pM) (positive control) or NT4/5 (400 pM) or NGF unrelated growth factor […]. High concentrations of neurotrophins were used, as the goal of this experiment was to test specificity of the antibodies. […]

human NGF [2] = biological target: T2, human NGF; experiment: Mouse E17/18 trigeminal neuron survival assay, NGF; type: cell-based; settings: saturating NGF (400 pM); 48 hours
Method: as §1, §2, §3

BDNF = biological target: T3, BDNF (Homo sapiens, UniProt P23560); experiment: Mouse E17 nodose neuron survival assay, BDNF; type: cell-based; settings: BDNF 400 pM; antibody up to 200 nM; 48 hours
T3 sequence (P23560 129-247): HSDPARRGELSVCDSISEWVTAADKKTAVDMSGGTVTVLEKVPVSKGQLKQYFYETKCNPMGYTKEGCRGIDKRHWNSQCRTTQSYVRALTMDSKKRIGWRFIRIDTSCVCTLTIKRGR
Method: as §4, §2, §5

[3] = biological target: macrophage stimulating protein (MSP) (Homo sapiens, UniProt P26927); experiment: Mouse E17/18 trigeminal neuron survival assay, MSP; type: cell-based; settings: MSP 600 pM; antibody up to 200 nM; 48 hours
macrophage stimulating protein (MSP), sequence (P26927 19-711, species assumed): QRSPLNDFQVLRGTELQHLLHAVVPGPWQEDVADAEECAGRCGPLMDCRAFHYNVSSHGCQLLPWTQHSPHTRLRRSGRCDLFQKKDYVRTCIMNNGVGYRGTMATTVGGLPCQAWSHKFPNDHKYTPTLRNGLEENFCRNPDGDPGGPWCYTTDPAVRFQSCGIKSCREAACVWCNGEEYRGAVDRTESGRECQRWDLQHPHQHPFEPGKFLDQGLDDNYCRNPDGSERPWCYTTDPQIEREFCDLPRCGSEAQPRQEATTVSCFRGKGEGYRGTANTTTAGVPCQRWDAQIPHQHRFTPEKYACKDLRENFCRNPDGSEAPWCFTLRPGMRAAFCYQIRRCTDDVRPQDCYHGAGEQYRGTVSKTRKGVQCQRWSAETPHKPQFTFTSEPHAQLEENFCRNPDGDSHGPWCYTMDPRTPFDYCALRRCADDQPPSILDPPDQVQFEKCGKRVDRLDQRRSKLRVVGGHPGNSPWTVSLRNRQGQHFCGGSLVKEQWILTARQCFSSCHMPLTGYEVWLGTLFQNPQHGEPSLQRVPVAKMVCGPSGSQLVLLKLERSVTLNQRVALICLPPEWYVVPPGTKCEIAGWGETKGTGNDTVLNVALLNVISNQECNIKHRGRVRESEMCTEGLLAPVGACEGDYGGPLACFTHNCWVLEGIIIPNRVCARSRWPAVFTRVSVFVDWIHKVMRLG
Method: as §1, §2, §3

[4] = biological target: interaction of human NGF with p75 (Homo sapiens, UniProt P01138); experiment: BIAcore: blocking of NGF binding to p75 on chip; settings: 2.5 nM human NGF preincubated one hour; Fab concentration equal to NGF concentration
interaction of human NGF with p75, sequence (P01138 122-241): as the sequence (P01138 122-241) above
Method: (§6) Antibody E3 (interchangeably termed 3E) was selected for further analysis based on the high binding affinity. To test the ability of E3 to prevent the interaction of NGF with the NGF receptors trkA and p75, 2.5 nM of human NGF was premixed and incubated for one hour with 0 to 50 nM of antibody E3 (Fab). After the incubation, samples were injected at 10 ul/minute on a BIAcore CM5 chip containing 260 RU of p75 (channel 2) and 600 RU of trkA (channel 3), and percent binding was determined.

[5] = biological target: interaction of human NGF with trkA (Homo sapiens, UniProt P01138); experiment: BIAcore: blocking of NGF binding to trkA on chip; settings: 2.5 nM human NGF preincubated one hour; Fab concentration equal to NGF concentration
interaction of human NGF with trkA, sequence (P01138 122-241): as above
Method: as §6

NT4/5 = biological target: T4, NT4/5 (Homo sapiens, UniProt P34130); experiment: Mouse E17 nodose neuron survival assay, NT4/5; type: cell-based; settings: NT4/5 400 pM; antibody up to 200 nM; 48 hours
T4 sequence (P34130 81-210): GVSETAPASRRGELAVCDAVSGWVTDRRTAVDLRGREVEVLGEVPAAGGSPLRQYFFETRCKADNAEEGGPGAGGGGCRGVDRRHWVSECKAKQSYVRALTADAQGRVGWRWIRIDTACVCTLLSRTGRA
Method: as §4, §2, §5

B1: E3 (Fab): Fab fragment of humanized anti-NGF antibody E3 (antibody, V domains shown)
VH: QVQLQESGPGLVKPSETLSLTCTVSGFSLIGYDLNWIRQPPGKGLEWIGIIWGDGTTDYNSAVKSRVTISKDTSKNQFSLKLSSVTAADTAVYYCARGGYWYATSYYFDYWGQGTLVTVS
VL: DIQMTQSPSSLSASVGDRVTITCRASQSISNNLNWYQQKPGKAPKLLIYYTSRFHSGVPSRFSGSGSGTDFTFTISSLQPEDIATYYCQQEHTLPYTFGQGTKLEIKRT
B1 was tested, and the “survival of E17/18 trigeminal neurons promoted by NT3” value (NT3) was “did not inhibit”, the koff (human NGF [1]) was less than 4e-05 s⁻¹ and the kon (human NGF [1]) was 600000 M⁻¹ s⁻¹. The “survival of E17 nodose neurons promoted by LIF” value (LIF) was “did not inhibit”, the “survival of E17/18 trigeminal neurons promoted by NGF” value (human NGF [2]) was “totally blocked” and the “survival of E17 nodose neurons promoted by BDNF” value (BDNF) was “did not inhibit”. The “survival of E17/18 trigeminal neurons promoted by MSP” value [3] was “did not inhibit”, the “NGF binding to p75 (percent maximum RU)” value [4] was “no NGF binding was observed” and the “NGF binding to trkA (percent maximum RU)” value [5] was “no NGF binding was observed”. For the same molecule, the “survival of E17 nodose neurons promoted by NT4/5” value (NT4/5) was “did not inhibit”.
